Results: US20230087785A1, “Leucine-Rich Repeat Kinase 2 Allosteric Modulators” (VIB VZW, priority 2020, published 2023)

What was measured:
LRRK2 (wild-type) = biological target: T1, LRRK2 (wild-type) (Homo sapiens, UniProt Q5S007, M2397T/R50H); assay: In vitro peptide phosphorylation (PhosphoSens kinase) assay; format: biochemical; conditions: 25 μM Nb; 10 μM AQT0615 peptide
T1 construct: Full-length human LRRK2 was expressed and purified based on previously developed protocols; SF tag (FLAG-tag + Twin-Strep-tag); made in house; host or cells: HEK 293T
Description: FIGS. 4A and 4B. Modulation of in vitro kinase activity by LRRK2-targeting Nbs. (FIG. 4A) Effect of selected LRRK2-targeting Nbs on LRRK2 kinase activity measured using the fluorescence-based PhosphoSens® Protein Kinase Assay, using the LRRK2-optimized AQT0615 peptide as substrate at a fixed concentration of 10 μM, and in the presence of 1 mM or 0.1 mM ATP, respectively. The influence of the different Nbs at a concentration of 25 μM on the relative kinase activity compared to the control where no Nb was added (“No Nb”) is plotted. […] (FIG. 4B) The influence of the different Nbs (25 μM) on the relative kinase activity compared to the “No-Nb” control is plotted, either in presence of 500 μM GDP (top) or 500 μM GTPγS (bottom). […] Each bar reflects the average (±SD) of three independent measurements.
Hereto, we used the fluorescence-based PhosphoSens® Protein Kinase Assay (AssayQuant Technologies Inc.), using the LRRK2-optimized AQT0615 peptide as substrate at a fixed concentration of 10 μM. The increase in fluorescence (Δexc:360 nm; Δemm:485 nm) due to LRRK2-catalyzed peptide phosphorylation was measured continuously in time under initial rate conditions at an ATP concentration of either 0.1 and 1 mM. Subsequently, the 10 Nbs were added at a final concentration of 25 μM and the effect on the initial rate was determined in triplicate (FIG. 4A). Two negative controls, where either no Nb or an irrelevant Nb was added, were also included. […] These experiments were performed in addition with LRRK2 either in the presence of a large excess (500 μM) of GDP or GTPγS (FIG. 4B), but no significant influence of the nucleotide on the inhibition profile was observed.
The Nb concentration was varied from 200 or 150 μM to 0.006 μM in a two-fold serial dilution, while keeping the peptide and ATP substrate concentrations constant at 10 μM and 1 mM, respectively (FIG. 11A-C).
The influence of the purified Nbs on LRRK2 kinase activity was determined using the PhosphoSens® Protein Kinase Assay (AssayQuant Technologies Inc.) using the optimized LRRK2 AQT0615 peptide as substrate and according to the manufacturers' instructions. The continuous kinase assay was performed in a total volume of 50 μL in a black half area 96 well plate. Each reaction mixture contained 10 μM AQT0615 peptide substrate/probe, either 0.1 mM or 1 mM ATP and 500 μM of either GDP, or GTPγS in a buffer consisting of 50 mM HEPES pH 7.5, 0.1% Brij-35, 50 mM NaCl and 10 mM MgCl2. The reaction was initiated by addition of a final concentration of 80 nM of LRRK2 either in absence or presence of 25 μM Nb. Prior to addition, LRRK2 and the Nbs were pre-incubated for 30 minutes on ice. The LRRK2-catalyzed phosphorylation of the peptide substrate/probe is followed continuously at 30° C. in a plate reader with excitation and emission wavelength of 360 nm and 485 nm respectively. Time traces were corrected by subtracting the “no LRRK2” control. The initial rates were determined from the slope of the linear portion of the curve.
To determine IC50 values the Nb concentration was varied from 150 μM to 0.006 μM using a two-fold serial dilution. In these assays a final LRRK2 concentration of 150 nM and an ATP concentration of 1 mM was used. The relative LRRK2 activity (compared to the “no nanobody” control) was plotted against the logarithmic Nb concentration and fitted on a three-parameter log(inhibitor) vs response equation in the GraphPad Prism software. All time traces were collected in triplicate.

endogenous LRRK2 = biological target: T2, endogenous LRRK2 (Mus musculus, UniProt Q5S006); assay: Colocalization of GFP-Nbs with endogenous LRRK2 on zymosan-containing phagosomes in RAW264.7 cells; format: cell-based; conditions: RAW264.7 cells transfected with GFP-Nbs, zymosan 30 mins, fixed cells
T2 construct: endogenous in cells; host or cells: RAW264.7
Description: RAW264.7 cells were transfected with GFP-fused Nbs and treated with Zymosan for 30 mins. Recruitment of LRRK2 and Nbs to the phagosomes was analyzed by immunofluorescence. FIG. 16A, images for Nb38, Nb22, Nb23, Nb40, No Nb, or Irrelevant (IRR) Nb treatments; FIG. 16B, images for Nb36, Nb42, Nb17, Nb39, Nb1, and Nb6 treatments. Scale bar=10 μm.
To test whether Nbs can trace and visualize endogenous LRRK2 in fixed cells, we generated green fluorescent protein (GFP)-Nb fusions (fluobodies) as described before. Recently, it was shown that LRRK2 is recruited to phagosomes upon induction of phagocytosis in immune cells. Therefore, RAW264.7 cells were transfected with these fluobodies and treated with killed yeast bioparticles “zymosan” to induce phagocytosis.
RAW264.7 cells (ATCC® SC-6003™) were transfected with peGFP-Nb constructs using JetOPTIMUS (Polyplus transfection) for 24 hrs and then stimulated with Zymosan particles (Sigma Aldrich) for 30 mins ([…]). Immunostaining for LRRK2 was performed as reported before. Briefly, cells fixed with 4% (w/v) paraformaldehyde for 30 min, followed by treatment with 100% EtOH at −20° C. Sampled were permeabilized with PBS/0.5% Triton X-100 and blocked with 3% BSA. Primary antibodies (rabbit anti-LRRK2, c41-2, Abcam and mouse anti-GFP, G6539, Sigma Aldrich) were diluted in PBS containing 3% BSA and 0.5% Triton X-100 and incubated overnight at 4° C. After three 5-min washes with PBS, secondary fluorescently labeled antibodies (anti-rabbit-Alexa fluor 568 and anti-mouse-Alexa fluor 488, Invitrogen) were added in a similar manner to primary antibodies and incubated for 1 hour at room temperature. Cells were washed twice with 1×PBS and mounted with Fluroshield antifade reagent with DAPI (SigmaAldrich). Images were acquired on Zeiss LSM800 confocal laser scanning microscope. Image analysis of z-scan was done using the Zeiss microscope software ZEN.

T2 sequence (Q5S006 whole entry): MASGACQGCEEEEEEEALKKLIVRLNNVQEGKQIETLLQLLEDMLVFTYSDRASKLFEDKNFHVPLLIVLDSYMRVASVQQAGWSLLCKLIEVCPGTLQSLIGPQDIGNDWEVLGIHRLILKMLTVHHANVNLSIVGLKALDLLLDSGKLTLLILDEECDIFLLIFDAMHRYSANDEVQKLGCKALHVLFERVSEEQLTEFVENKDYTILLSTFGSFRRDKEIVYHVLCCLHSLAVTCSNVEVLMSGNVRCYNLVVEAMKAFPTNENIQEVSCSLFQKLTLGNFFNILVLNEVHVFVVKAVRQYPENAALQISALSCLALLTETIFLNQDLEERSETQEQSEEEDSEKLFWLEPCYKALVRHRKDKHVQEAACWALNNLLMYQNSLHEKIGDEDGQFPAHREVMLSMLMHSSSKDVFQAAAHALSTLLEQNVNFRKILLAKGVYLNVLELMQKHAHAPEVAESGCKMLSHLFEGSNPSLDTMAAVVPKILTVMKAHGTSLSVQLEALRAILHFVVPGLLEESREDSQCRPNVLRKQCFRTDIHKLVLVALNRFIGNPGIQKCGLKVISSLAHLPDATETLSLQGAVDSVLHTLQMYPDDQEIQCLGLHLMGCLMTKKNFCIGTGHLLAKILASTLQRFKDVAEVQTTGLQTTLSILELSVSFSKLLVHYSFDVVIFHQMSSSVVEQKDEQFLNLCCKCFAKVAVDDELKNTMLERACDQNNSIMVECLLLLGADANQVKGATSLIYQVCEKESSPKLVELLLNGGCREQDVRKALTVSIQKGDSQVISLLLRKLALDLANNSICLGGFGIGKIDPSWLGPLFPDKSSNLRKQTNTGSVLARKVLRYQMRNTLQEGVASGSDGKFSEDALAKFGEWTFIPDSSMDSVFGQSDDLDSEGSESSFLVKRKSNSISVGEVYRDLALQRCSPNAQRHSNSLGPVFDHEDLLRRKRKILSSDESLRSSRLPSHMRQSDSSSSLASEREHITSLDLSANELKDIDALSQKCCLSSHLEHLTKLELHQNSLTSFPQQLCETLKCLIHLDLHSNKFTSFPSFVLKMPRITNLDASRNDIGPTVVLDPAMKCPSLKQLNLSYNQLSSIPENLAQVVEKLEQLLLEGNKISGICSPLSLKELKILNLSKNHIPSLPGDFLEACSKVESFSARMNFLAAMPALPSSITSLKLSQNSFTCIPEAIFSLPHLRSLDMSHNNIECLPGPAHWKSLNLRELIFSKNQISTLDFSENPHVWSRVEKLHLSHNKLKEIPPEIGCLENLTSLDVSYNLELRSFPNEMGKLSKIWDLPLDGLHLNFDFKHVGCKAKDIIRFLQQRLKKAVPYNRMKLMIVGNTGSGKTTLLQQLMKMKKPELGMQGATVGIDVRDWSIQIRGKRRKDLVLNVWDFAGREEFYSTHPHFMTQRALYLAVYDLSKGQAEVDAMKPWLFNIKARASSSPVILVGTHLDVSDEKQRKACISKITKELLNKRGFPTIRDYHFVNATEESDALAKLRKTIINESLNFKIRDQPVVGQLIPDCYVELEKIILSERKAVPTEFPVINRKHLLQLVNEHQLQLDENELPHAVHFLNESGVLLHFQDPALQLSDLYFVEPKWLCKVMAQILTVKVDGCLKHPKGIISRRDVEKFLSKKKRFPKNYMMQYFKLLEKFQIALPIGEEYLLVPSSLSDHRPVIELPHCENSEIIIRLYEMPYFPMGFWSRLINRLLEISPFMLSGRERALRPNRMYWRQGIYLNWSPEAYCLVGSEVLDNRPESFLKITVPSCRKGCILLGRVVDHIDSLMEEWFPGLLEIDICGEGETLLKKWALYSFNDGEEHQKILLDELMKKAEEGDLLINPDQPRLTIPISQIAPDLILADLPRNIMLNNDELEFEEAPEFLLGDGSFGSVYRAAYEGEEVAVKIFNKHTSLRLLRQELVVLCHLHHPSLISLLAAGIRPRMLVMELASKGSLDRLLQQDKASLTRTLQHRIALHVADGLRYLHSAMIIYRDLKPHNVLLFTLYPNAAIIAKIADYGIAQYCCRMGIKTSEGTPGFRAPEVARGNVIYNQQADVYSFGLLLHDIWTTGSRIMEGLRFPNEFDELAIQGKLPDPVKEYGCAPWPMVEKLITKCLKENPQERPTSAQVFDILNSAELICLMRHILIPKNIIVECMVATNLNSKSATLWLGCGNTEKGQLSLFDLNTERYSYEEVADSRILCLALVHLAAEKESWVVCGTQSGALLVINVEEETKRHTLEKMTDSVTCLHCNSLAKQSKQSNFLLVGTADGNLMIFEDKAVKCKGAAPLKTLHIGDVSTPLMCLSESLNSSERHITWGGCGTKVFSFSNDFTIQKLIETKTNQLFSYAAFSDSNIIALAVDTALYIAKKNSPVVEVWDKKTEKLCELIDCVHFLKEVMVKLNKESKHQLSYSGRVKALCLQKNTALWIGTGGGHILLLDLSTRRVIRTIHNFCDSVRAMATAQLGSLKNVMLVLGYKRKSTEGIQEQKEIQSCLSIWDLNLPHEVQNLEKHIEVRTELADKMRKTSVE
T1 sequence (Q5S007 whole entry R50H/M2397T): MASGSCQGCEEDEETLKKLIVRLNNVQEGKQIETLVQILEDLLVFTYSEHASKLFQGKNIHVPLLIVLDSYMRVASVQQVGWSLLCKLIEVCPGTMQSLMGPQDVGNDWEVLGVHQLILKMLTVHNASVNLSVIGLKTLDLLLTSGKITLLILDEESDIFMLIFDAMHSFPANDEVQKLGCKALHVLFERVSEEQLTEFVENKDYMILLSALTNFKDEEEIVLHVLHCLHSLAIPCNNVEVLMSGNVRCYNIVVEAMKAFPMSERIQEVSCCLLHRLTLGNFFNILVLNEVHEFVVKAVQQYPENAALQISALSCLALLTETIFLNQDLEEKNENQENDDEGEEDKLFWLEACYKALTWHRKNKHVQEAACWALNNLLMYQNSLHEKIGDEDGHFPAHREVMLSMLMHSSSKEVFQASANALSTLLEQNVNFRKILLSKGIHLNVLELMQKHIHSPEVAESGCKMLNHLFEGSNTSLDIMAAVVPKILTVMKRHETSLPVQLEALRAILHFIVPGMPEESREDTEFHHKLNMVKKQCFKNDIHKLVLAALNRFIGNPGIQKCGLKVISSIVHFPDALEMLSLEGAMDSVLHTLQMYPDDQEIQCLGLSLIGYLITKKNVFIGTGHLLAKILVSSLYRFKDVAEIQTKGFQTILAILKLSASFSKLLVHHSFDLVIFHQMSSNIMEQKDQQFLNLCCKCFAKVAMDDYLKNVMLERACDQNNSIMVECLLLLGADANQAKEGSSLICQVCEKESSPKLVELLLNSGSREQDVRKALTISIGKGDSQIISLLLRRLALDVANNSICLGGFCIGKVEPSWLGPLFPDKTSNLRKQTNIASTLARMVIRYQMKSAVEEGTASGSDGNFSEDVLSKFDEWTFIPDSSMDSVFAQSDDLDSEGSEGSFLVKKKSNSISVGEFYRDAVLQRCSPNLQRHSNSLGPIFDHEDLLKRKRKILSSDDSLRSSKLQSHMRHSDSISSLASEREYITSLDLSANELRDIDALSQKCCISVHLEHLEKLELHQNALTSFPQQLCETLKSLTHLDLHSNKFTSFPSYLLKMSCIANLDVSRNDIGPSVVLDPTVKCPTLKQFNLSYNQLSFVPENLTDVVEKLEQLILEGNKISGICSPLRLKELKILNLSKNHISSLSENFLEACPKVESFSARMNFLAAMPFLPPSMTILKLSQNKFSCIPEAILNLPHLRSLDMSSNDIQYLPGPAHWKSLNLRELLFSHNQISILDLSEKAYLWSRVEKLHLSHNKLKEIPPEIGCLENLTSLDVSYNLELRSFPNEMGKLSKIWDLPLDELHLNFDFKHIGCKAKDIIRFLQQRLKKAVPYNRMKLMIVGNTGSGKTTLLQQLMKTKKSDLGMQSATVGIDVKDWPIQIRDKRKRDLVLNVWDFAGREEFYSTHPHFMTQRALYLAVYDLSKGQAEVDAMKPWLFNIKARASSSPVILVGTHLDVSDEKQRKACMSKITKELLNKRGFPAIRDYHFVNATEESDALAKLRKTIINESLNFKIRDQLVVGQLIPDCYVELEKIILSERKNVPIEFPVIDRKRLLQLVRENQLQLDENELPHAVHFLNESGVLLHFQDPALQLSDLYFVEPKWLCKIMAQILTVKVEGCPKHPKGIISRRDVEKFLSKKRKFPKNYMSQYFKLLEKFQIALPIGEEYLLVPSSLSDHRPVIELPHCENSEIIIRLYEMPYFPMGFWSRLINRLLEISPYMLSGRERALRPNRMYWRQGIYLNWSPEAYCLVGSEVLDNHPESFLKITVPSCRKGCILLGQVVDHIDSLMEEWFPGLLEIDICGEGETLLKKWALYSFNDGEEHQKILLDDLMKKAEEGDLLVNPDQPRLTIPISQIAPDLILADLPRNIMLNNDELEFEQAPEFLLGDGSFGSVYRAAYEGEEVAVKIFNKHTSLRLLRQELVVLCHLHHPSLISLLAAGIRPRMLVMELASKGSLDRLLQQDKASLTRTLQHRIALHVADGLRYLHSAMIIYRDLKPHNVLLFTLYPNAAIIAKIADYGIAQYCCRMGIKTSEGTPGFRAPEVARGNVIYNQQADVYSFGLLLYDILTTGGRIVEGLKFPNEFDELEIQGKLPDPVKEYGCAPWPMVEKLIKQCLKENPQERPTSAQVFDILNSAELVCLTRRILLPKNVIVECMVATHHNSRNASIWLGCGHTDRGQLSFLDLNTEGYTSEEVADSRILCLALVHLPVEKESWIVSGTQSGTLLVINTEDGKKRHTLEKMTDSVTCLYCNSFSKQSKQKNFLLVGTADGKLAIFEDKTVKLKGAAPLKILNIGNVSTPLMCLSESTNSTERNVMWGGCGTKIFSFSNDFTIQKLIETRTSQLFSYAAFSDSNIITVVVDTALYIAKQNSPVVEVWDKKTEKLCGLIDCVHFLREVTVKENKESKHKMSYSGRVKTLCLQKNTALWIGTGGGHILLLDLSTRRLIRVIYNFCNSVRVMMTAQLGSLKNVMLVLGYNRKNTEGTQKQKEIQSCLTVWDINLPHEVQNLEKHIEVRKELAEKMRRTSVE

B1: Nb1: LRRK2-specific Nanobody, SEQ ID NO: 1 (protein)
VHH: MAQVQLVESGGGLVQAGGSLRLSCVASGRIFSGNAMGWYRQAPGRQRELVAGITNGGYTNYRQFVKGRFTISRDNAKRTVYLQMNSLKPEDTAVYYCNALDREARQVDYWGQGTQVTVSS
modifications: Nanobody CA12610
**Q.** B1 was tested. Which “effect on in vitro LRRK2 kinase activity” value (LRRK2 (wild-type)) did it give?
**A.** very clear significant inhibiting effect

**Q.** And the “colocalization with endogenous LRRK2 on phagosomes” value (shortened to “colocalization”) (endogenous LRRK2)?
**A.** LRRK2 recruitment to phagosomes was slightly detectable

B2: Nb23: LRRK2-specific Nanobody, SEQ ID NO: 3 (protein)
VHH: MAQVQLVESGGGLVQAGGSLRLSCAASGRTFSRYTMGWFRQAPGKDREFVARITTSGAVTTYADSAKGRFTISRDNAKNTVYLQMNTLKPEDTAVYYCAAGQGQLSSQSRFVDYWGQGTQVTVSS
modifications: Nanobody CA13612
**Q.** B2 was tested. Which “effect on in vitro LRRK2 kinase activity” value (LRRK2 (wild-type)) did it give?
**A.** (to a lesser extent) Nb23 (CA13612), have a very clear significant inhibiting effect

**Q.** And the “colocalization” value (endogenous LRRK2)?
**A.** clearly colocalized with LRRK2 on zymosan-containing phagosomes

B3: Nb6: LRRK2-specific Nanobody, SEQ ID NO: 2 (protein)
VHH: MAQVQLVESGGGLVQAGGSLRLSCAASGSIFSPTAMGWYRQAPGKERELVAGITSGGYTNYRNFARGRFTISRDNAKKTVYLQMNSLNPEDTAVYYCNTLTISWSWGQGTQVTVSS
modifications: Nanobody CA12618
**Q.** For B3, which “effect on in vitro LRRK2 kinase activity” value (LRRK2 (wild-type)) is on record?
**A.** very clear significant inhibiting effect

**Q.** And the “colocalization” value (endogenous LRRK2)?
**A.** LRRK2 recruitment to phagosomes was slightly detectable

B4: Nb42: LRRK2-specific Nanobody, SEQ ID NO: 6 (protein)
VHH: MAQVQLVESGGGLVQAGGSLRLSCAASGDVNYAVGWFRQAPRKEREFVAAINWRGDNTDYTDSVKGRFTISRDNAKNTVYLQMNSLKPEDTAVYYCAAKSAPYWYSDIAPDYWGQGTQVTVSS
modifications: Nanobody CA14259
**Q.** For B4, which “effect on in vitro LRRK2 kinase activity” value (LRRK2 (wild-type)) is on record?
**A.** no inhibitory effect could be observed in vitro

**Q.** And the “colocalization” value (endogenous LRRK2)?
**A.** did not colocalize with endogenous LRRK2

B5: Nb22: LRRK2-specific Nanobody, SEQ ID NO: 9 (protein)
VHH: MAQVQLVESGGGLVQAGGSLRLSCAASGRTFSSYTMGWFRQAPGKEREFVAAIRWSGGSTYYADSVKGRFTISRDNAKNTVYLQMNSLKPEDTAVYYCAASDRGGFIATSGGWMDYWGKGTQVTVSS
modifications: Nanobody CA13611
**Q.** What does the source list for B5?
**A.** effect on in vitro LRRK2 kinase activity (LRRK2 (wild-type)): activates the kinase activity of LRRK2 in vitro; colocalization with endogenous LRRK2 on phagosomes (endogenous LRRK2): clearly colocalized with LRRK2 on zymosan-containing phagosomes
